Reference: article PMC5507214

What was measured:
RNaseH1 D210N = molecular target: T1, RNaseH1 D210N (Homo sapiens, UniProt O60930 27-286, D210N); assay: EMSA
T1 sequence: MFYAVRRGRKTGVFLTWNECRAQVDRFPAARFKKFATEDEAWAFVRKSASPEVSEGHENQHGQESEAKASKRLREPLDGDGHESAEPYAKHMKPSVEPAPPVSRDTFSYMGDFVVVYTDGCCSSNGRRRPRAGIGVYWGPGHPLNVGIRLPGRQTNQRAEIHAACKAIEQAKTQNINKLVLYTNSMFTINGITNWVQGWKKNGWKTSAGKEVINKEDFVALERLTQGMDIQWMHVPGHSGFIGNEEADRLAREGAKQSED

RNaseH1 D210N;RPA = RNaseH1 D210N;RPA (Homo sapiens;Homo sapiens, UniProt O60930;P27694;P15927;P35244 27-286;1-616;1-270;1-121, D210N|); assay: EMSA
Sequence of RNaseH1 D210N;RPA (P27694 whole entry, chain 2 of 3): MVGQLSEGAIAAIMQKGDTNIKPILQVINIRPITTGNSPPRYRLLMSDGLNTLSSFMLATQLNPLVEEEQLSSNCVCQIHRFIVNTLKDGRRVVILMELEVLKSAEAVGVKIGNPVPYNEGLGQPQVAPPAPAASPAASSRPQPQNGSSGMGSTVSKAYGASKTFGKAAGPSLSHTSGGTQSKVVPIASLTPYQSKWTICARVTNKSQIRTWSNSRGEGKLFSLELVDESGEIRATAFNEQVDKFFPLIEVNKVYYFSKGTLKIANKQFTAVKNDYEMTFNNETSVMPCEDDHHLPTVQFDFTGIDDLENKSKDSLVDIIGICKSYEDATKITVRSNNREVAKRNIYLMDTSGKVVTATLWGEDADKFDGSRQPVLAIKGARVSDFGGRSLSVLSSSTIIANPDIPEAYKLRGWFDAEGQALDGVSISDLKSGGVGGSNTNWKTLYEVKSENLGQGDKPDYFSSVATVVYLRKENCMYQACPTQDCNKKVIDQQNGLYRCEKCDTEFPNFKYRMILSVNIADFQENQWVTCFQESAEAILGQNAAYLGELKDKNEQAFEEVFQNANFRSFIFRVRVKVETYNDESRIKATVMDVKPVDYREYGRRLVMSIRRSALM
Sequence of RNaseH1 D210N;RPA (P15927 whole entry, chain 3 of 3): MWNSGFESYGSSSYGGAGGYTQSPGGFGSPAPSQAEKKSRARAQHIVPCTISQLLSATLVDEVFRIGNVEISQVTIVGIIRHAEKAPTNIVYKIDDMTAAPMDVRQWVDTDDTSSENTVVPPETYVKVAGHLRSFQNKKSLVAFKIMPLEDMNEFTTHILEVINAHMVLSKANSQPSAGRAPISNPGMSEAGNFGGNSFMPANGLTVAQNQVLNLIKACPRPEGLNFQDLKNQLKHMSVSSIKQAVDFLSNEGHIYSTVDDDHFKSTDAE
Sequence of RNaseH1 D210N;RPA (P35244 whole entry, chain 4 of 3): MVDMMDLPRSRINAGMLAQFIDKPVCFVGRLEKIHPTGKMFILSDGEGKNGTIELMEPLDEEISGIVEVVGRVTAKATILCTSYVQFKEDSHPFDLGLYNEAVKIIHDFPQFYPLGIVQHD

B1: R:D (25-bp RNA:DNA hybrid) (DNA:RNA)
RNA: GCAGCUGGCACGACAGGUAUGAAUC
DNA: GATTCATACCTGTCGTGCCAGCTGC
binding result (RNaseH1 D210N): binds | binding result (RNaseH1 D210N;RPA): binds
